Measured values from US20090016967A1.

Target: IGF-1 receptor (IGF-1R) on primary mouse lung fibroblasts / in mouse lung (mouse) (UniProt Q60751)
Test: cell-based or functional assay

Chain of IGF-1 receptor (IGF-1R) on primary mouse lung fibroblasts / in mouse lung (mouse) (Q60751 31-1373): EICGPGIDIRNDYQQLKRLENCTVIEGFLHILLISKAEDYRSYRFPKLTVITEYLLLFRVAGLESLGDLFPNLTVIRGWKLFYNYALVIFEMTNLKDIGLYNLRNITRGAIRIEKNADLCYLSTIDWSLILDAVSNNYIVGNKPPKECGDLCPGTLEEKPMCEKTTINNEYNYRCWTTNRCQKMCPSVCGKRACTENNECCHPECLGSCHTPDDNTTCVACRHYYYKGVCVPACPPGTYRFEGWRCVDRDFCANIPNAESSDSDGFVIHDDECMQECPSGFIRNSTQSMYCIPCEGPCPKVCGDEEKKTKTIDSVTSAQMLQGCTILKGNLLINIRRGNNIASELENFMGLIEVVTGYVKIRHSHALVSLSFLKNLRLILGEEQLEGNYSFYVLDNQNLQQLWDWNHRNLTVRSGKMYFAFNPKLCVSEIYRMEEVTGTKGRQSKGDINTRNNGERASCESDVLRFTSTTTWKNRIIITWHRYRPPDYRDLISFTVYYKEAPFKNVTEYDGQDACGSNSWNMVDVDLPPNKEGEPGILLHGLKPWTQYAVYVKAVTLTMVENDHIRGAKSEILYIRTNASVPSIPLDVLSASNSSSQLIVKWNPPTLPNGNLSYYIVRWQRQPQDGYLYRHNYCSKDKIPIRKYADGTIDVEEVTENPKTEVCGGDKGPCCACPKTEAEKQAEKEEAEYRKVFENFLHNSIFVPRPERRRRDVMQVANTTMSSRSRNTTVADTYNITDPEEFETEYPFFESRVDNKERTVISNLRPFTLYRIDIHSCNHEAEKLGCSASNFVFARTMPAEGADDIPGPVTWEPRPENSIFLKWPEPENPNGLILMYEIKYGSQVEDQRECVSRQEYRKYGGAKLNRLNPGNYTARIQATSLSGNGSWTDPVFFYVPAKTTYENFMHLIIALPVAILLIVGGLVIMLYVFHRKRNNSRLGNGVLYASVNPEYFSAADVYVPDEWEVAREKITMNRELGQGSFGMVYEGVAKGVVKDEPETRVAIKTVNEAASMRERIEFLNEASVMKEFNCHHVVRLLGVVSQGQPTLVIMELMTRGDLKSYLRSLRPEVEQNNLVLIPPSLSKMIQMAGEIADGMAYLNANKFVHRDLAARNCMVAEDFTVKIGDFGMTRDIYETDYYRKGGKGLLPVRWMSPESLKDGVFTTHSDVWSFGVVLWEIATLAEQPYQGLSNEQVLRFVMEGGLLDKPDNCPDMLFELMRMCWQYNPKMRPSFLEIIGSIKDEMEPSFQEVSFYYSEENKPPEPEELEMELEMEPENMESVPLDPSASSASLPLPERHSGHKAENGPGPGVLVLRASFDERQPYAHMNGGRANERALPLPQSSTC

- migration of mouse lung fibroblasts (transwell): 1.8 fold
Substance: IGF-1 (R&D Systems) (ligand)
